From publication PMC3215855 (Developmental cell, 2011)

T1: LRP6(3-4) (human, UniProt O75581 630-1246, N-linked carbohydrate at five predicted sites)
T1 sequence: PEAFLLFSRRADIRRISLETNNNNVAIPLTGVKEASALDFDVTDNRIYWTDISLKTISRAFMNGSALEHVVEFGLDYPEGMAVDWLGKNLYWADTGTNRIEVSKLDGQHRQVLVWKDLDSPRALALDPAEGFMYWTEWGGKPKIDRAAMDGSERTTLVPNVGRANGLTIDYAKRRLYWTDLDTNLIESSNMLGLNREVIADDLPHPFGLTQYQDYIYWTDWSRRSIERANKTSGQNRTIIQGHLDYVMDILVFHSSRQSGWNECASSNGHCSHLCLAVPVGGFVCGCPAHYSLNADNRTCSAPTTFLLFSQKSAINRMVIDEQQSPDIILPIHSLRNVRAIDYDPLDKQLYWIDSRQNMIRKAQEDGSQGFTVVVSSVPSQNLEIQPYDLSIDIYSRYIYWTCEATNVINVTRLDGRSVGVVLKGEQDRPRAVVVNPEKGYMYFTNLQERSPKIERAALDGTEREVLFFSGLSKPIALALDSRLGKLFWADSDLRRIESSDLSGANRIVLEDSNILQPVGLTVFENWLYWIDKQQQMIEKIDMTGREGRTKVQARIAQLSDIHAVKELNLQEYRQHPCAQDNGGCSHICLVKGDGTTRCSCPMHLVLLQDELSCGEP


Target: T1, LRP6(3-4)
Test: ITC

Binder | Kd [nM] | stoichiometry N
full-length Dkk1 (ligand, human, UniProt O94907 32-266, looked up, one N-linked carbohydrate site) TLNSVLNSNAIKNLPPPLGGAAGHPGSAVSAAPGILYPGGNKYQTIDNYQPYPCAEDEECGTDEYCASPTRGGDAGVQICLACRKRRKRCMRHAMCCPGNYCKNGICVSSDQNHFRGEIEETITESFGNDHSTLDGYSRRTTLSSKMYHTKGQEGSVCLRSSDCASGLCCARHFWSKICKPVLKEGQVCTKHRRKGSHGLEIFQRCYCGEGLSCRIQKDHHQASNSSRLHTCQRH | 67 | 
Dkk1_C (domain or fragment, human, UniProt O94907 178-266, looked up) MYHTKGQEGSVCLRSSDCASGLCCARHFWSKICKPVLKEGQVCTKHRRKGSHGLEIFQRCYCGEGLSCRIQKDHHQASNSSRLHTCQRH |  | 1
